One molecule from patent US20200317768A1 (published 2020) can be followed below.

Test in all cases: SPR (Biacore); KD of SG1 / KD of variant;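 also: relative to parent M103205H795-SG1 carrying the SG1 human heavy chain constant region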
In general terms: SPR reads the build-up and loss of mass on a sensor chip optically.

The target in experiment [1] is T1, cynomolgus monkey FcγRIIa1 extracellular domain, C-terminal His-tag (cynomolgus monkey).
T1 construct: also called cyno FcγRIIa1; cynoFcgRIIa1
T1 chain: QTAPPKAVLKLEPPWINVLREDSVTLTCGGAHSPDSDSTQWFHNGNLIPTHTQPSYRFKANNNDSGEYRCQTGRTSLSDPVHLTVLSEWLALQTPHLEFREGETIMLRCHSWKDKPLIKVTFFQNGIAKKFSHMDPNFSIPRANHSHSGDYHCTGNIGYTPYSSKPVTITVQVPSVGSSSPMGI

Experiment [2] concerns the target T2, human FcγRIIb extracellular domain, C-terminal His-tag (human, UniProt P31994 43-217).
T2 construct: also called human FcgRIIb; FcgRIIb
T2 sequence: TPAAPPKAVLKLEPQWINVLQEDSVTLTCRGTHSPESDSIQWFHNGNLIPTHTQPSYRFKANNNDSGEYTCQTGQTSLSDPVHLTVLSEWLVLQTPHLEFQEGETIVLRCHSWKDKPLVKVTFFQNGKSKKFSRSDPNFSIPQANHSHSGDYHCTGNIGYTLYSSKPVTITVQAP

Experiment [3] has as its target T3, human FcγRIIIaV extracellular domain, C-terminal His-tag (human, UniProt P08637 17-208).
T3 construct: also called human FcgRIIIaV; FcgRIIIaV

Experiment [4] concerns the target T4, cynomolgus monkey FcγRIIa2 extracellular domain, C-terminal His-tag (cynomolgus monkey).
T4 construct: also called cyno FcγRIIa2; cynoFcgRIIa2
T4 chain: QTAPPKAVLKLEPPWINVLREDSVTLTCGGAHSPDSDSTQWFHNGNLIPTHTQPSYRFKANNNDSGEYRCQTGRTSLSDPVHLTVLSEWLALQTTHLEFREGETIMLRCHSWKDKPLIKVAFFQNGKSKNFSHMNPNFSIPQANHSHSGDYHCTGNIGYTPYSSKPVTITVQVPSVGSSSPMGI

Experiment [5] addresses T5, cynomolgus monkey FcγRIIa3 extracellular domain, C-terminal His-tag (cynomolgus monkey).
T5 construct: also called cyno FcγRIIa3; cynoFcgRIIa3
T5 chain: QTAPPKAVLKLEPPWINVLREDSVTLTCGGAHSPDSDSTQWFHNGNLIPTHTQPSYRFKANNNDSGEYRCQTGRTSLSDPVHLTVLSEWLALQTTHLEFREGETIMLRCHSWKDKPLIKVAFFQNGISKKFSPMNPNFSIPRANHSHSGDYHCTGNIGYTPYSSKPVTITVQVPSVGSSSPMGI

Experiment [6] has as its target T6, human FcγRIIaR extracellular domain, C-terminal His-tag (human, UniProt P12318 34-217).
T6 construct: also called human FcγRIIa (type R); FcgRIIaR
T6 chain: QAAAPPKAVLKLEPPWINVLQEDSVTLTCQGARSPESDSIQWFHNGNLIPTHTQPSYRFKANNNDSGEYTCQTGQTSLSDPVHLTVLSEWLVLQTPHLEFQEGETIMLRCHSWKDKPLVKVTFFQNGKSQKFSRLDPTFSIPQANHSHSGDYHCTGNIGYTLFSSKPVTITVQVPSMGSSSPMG

Experiment [7] addresses T7, cynomolgus monkey FcγRIIb extracellular domain, C-terminal His-tag (cynomolgus monkey).
T7 construct: also called cyno FcγRIIb; cynoFcγRIIb
T7 chain: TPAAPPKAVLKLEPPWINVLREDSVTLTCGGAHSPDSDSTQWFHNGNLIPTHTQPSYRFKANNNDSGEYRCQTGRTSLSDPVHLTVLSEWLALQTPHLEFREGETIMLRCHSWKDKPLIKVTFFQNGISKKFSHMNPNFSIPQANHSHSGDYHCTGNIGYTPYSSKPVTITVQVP

The target of experiment [8] is T8, cynomolgus monkey FcγRIIIaS extracellular domain, C-terminal His-tag (cynomolgus monkey, UniProt Q8SPW2 21-206 at identity 1.00)).
T8 construct: also called cyno FcγRIIIaS; cynoFcγRIIIaS
T8 chain: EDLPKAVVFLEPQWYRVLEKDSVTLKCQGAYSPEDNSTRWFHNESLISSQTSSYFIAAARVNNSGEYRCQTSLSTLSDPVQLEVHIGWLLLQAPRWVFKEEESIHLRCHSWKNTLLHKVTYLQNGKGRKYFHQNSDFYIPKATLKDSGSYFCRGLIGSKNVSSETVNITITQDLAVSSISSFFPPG

T3 sequence (P08637 17-208 F176V): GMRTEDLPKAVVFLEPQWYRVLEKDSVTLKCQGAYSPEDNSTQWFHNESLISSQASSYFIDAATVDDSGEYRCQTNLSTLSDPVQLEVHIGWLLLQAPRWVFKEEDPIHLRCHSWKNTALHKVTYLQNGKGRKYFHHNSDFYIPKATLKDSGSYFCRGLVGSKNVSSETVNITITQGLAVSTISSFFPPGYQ

B1: M103205H795-MY197/M103202L889-SK1 (antibody, human IgG1, kappa)
heavy: QVTLKESGPVLVKPTETLTLTCTVSGIDLSHDDISWVRQAPGKGLEWVGIISYAGSTYYASWAKGRLTISKDTSKNQVVLTMTNMDPVDTATYYCARGVPAYSHGGDLWGQGTLVTVSSASTKGPSVFPLAPSSKSTSGGTAALGCLVKDYFPEPVTVSWNSGALTSGVHTFPAVLQSSGLYSLSSVVTVPSSSLGTQTYICNVNHKPSNTKVDKKVEPKSCDKTHTCPPCPAPELLNGPSVFLFPPKPKDTLMISRTPEVTCVVVDVSDEDPEVKFNWYVDGVEVHNAKTKPREEQYNSTYRVVSVLTVLHQDWLNGKEYKCKVSNKALPKPIEKTISKAKGQPREPQVYTLPPSREEMTKNQVSLTCLVKGFYPSDIAVEWESNGQPENNYKTTPMVLDSDGSFFLYSKLTVDKSRWQQGNVFSCSVMHEALHNHYTQKSLSLSP
light: DIVMTQSPATLSLSPGERATLSCTSSQSVYHANWLSWFQQKPGQPPKLLIYWASTLAYGVPSRFSGSGSGTDFTLTISSLQPEDAATYYCAGGYGGGRYAFGQGTKVEIKRTVAAPSVFIFPPSDEQLKSGTASVVCLLNNFYPREAKVQWKVDNALQSGNSQESVTEQDSKDSTYSLSSTLTLSKADYEKHKVYACEVTHQGLSSPVTKSFNRGEC
notes: Substitutions introduced into M103205H795-SG1; expressed with M103202L889-SK1 as light chain
Regarding B1, the “KD fold (SG1 = 1)” value in experiment [1] is 5.5 fold; in experiment [2] it was 11.8 fold; in experiment [3] it was 0.08 fold; in experiment [4] it was 9.1 fold; in experiment [5] it was 12.1 fold; in experiment [6], 1.5 fold. Further, the “KD fold (SG1 = 1)” value in experiment [7] was determined as 10.6 fold; in experiment [8], 0.17 fold.
